Test results: US20220265856A1 (MODERNATX, published 2022)

Experiments:
[1] = target: T1, human propionyl-CoA carboxylase alpha (PCCA), wild-type isoform 1 (human, UniProt P05165 53-728); assay: immunofluorescence co-localisation with mitochondria in GM371 PCCA-deficient patient fibroblasts, 24 h after co-transfection of PCCA_18 and PCCB_18 mRNAs
T1 construct: Made inside transfected cells or mouse liver from mRNA encoding the full-length precursor; also called hPCCA; propionyl-CoA carboxylase alpha subunit
T1 sequence: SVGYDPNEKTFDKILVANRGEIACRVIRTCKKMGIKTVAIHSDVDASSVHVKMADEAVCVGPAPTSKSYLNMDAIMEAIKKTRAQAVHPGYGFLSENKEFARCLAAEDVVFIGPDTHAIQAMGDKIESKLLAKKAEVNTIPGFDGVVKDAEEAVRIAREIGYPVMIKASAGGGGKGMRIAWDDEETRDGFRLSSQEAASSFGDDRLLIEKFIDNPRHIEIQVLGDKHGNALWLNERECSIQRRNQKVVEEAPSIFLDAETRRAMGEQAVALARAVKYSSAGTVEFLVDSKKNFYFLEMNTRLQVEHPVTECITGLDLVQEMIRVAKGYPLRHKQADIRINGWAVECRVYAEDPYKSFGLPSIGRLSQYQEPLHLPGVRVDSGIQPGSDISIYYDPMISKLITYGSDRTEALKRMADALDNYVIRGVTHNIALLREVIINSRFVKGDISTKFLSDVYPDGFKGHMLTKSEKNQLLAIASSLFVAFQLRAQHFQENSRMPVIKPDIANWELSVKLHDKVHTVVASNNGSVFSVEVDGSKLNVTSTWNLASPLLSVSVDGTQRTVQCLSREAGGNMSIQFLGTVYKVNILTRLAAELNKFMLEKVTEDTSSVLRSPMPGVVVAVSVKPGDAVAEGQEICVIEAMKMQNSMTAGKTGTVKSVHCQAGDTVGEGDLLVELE
Protocol: The subcellular co-localization of PCCA and PCCB proteins was examined in GM371 PCCA-deficient patient fibroblasts (9,000 cells/well on a 96-well plate) 24 hours after transfection with a total of 25 ng of 1-methyl-pseudouridine modified mRNAs encoding human PCCA (PCCA_18; SEQ ID NO: 35) and PCCB (PCCB_18; SEQ ID NO: 46), or a luciferase control. Commercial anti-PCCA monoclonal antibody (Santa Cruz #sc-393527) and anti-PCCB polyclonal antibody (Novus #NBP1-85886) were used to detect mRNA-expressed PCCA and PCCB using immunofluorescence microscopy. Mitotracker Red was used to confirm the identity of mitochondria and DAPI was used to stain nuclei. Image analysis was performed on a Zeiss ELYRA imaging system. […] There was no PAAC or PCCB staining in negative control cells that were transfected with mRNA encoding luciferase.

[2] = target: T2, human propionyl-CoA carboxylase beta (PCCB), wild-type isoform 1
T2 chain: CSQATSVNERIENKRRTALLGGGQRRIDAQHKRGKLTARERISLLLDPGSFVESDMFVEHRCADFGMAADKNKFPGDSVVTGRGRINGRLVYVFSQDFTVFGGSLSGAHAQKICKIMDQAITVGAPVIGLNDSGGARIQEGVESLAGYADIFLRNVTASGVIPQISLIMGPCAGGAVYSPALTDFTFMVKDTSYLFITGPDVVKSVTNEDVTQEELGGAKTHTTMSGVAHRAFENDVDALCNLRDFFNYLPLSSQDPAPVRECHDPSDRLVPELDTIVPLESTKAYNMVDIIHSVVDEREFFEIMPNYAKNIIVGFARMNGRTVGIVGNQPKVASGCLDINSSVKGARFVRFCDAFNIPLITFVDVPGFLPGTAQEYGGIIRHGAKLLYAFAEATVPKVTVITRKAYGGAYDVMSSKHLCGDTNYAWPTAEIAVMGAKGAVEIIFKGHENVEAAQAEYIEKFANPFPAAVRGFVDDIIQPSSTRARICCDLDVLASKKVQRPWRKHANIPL

Row | Binder | binding result [1] | PCC activity in GM371 PCCA-deficient patient fibroblasts at different PCCA:PCCB mRNA molar ratios, 24 h and 40 h [2] | PCC activity in GM1298 PCCB-deficient patient fibroblasts at different PCCA:PCCB mRNA molar ratios, 24 h [2] | PCC enzyme activity (radiometric assay, MicroBeta readout/ug protein) in PCCA- and PCCB-deficient patient fibroblasts: co-transfection of PCCA and PCCB mRNAs at 1:1 against either mRNA alone [2]
1 | human propionyl-CoA carboxylase beta (PCCB), wild-type isoform 1 (enzyme, Made inside transfected cells or mouse liver from mRNA encoding the full-length precursor; also called hPCCB; propionyl-CoA carboxylase beta subunit) CSQATSVNERIENKRRTALLGGGQRRIDAQHKRGKLTARERISLLLDPGSFVESDMFVEHRCADFGMAADKNKFPGDSVVTGRGRINGRLVYVFSQDFTVFGGSLSGAHAQKICKIMDQAITVGAPVIGLNDSGGARIQEGVESLAGYADIFLRNVTASGVIPQISLIMGPCAGGAVYSPALTDFTFMVKDTSYLFITGPDVVKSVTNEDVTQEELGGAKTHTTMSGVAHRAFENDVDALCNLRDFFNYLPLSSQDPAPVRECHDPSDRLVPELDTIVPLESTKAYNMVDIIHSVVDEREFFEIMPNYAKNIIVGFARMNGRTVGIVGNQPKVASGCLDINSSVKGARFVRFCDAFNIPLITFVDVPGFLPGTAQEYGGIIRHGAKLLYAFAEATVPKVTVITRKAYGGAYDVMSSKHLCGDTNYAWPTAEIAVMGAKGAVEIIFKGHENVEAAQAEYIEKFANPFPAAVRGFVDDIIQPSSTRARICCDLDVLASKKVQRPWRKHANIPL | binds | – | – | –
2 | human propionyl-CoA carboxylase alpha (PCCA), wild-type isoform 1 (protein) SVGYDPNEKTFDKILVANRGEIACRVIRTCKKMGIKTVAIHSDVDASSVHVKMADEAVCVGPAPTSKSYLNMDAIMEAIKKTRAQAVHPGYGFLSENKEFARCLAAEDVVFIGPDTHAIQAMGDKIESKLLAKKAEVNTIPGFDGVVKDAEEAVRIAREIGYPVMIKASAGGGGKGMRIAWDDEETRDGFRLSSQEAASSFGDDRLLIEKFIDNPRHIEIQVLGDKHGNALWLNERECSIQRRNQKVVEEAPSIFLDAETRRAMGEQAVALARAVKYSSAGTVEFLVDSKKNFYFLEMNTRLQVEHPVTECITGLDLVQEMIRVAKGYPLRHKQADIRINGWAVECRVYAEDPYKSFGLPSIGRLSQYQEPLHLPGVRVDSGIQPGSDISIYYDPMISKLITYGSDRTEALKRMADALDNYVIRGVTHNIALLREVIINSRFVKGDISTKFLSDVYPDGFKGHMLTKSEKNQLLAIASSLFVAFQLRAQHFQENSRMPVIKPDIANWELSVKLHDKVHTVVASNNGSVFSVEVDGSKLNVTSTWNLASPLLSVSVDGTQRTVQCLSREAGGNMSIQFLGTVYKVNILTRLAAELNKFMLEKVTEDTSSVLRSPMPGVVVAVSVKPGDAVAEGQEICVIEAMKMQNSMTAGKTGTVKSVHCQAGDTVGEGDLLVELE | – | a PCCA:PCCB molar ratio of 1:1 (A:B ratio of 1:1) increased PCC activity the greatest in PCCA-deficient patient fibroblasts | a PCCA:PCCB molar ratio of 1:1 (A:B ratio of 1:1) increased PCC activity the greatest in PCCB-deficient patient fibroblasts | 5-25 fold higher
